Publication PMC12480156, “From biophysical interaction to structural modeling: bi-terminal G and TGS domains drive rice OsYchF1-OsGAP1 complex formation” (Botanical Studies, 2025)
One block for each molecule: values may come before it.

How the values were obtained:
[1] = target: GST-OsGAP1 (rice (Oryza sativa)) (UniProt Q6YWF1); assay: ITC; MicroCal ITC200; 400–500 µM (His)6-OsYchF1, its truncated derivatives or (His)6-tag in the syringe titrated into 20–30 µM GST-OsGAP1 or GST-tag in the chamber; 20 mM Tris-HCl pH 7.5, 20 mM NaCl, 1 mM DTT; 25 °C
GST-OsGAP1 = target: T1, GST-OsGAP1 (rice (Oryza sativa), UniProt Q6YWF1 1-165); assay: as above; details: both partners purified
T1 construct: also called GST-tagged OsGAP1; source: E. coli BL21 (DE3) pLysS, purified; not shown: GST, N-terminal, kept
T1 sequence (looked up): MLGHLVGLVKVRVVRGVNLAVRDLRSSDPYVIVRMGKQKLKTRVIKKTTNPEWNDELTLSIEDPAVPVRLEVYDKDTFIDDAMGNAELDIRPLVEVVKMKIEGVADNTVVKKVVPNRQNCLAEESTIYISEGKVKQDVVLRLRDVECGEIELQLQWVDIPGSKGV

Molecule: full-length (His)6-OsYchF1 (from UniProt Q6Z1J6 1-394) (natural protein)
- Kd [1]: 103 µM
- stoichiometry N [1]: 0.6

B2: (His)6-OsYchF1 (TGS domain) (domain or fragment, rice (Oryza sativa), UniProt Q6Z1J6 303-394, looked up)
chain: HLIYFFTAGPDEVKCWQIRRQTKAPQAAGTIHTDFERGFICAEVMKFDDLKELGSESAVKAAGKYRQEGKTYVVQDGDIIFFKFNVSGGGKK
notes: OsYchF1, rice, TGS domain, aa 303-394; also called (His)6-TGS; source: E. coli BL21 (DE3) pLysS, purified; not shown: His6, N-terminal, kept; thioredoxin (Trx), N-terminal, kept; S-tag, N-terminal, kept
- Kd (GST-OsGAP1): 5.1 ± 2.3 µM
- dH (GST-OsGAP1): -3.4 ± 1.1 kcal/mol
- stoichiometry N (GST-OsGAP1): 0.6 ± 0.1

Further lines, results first:

- Kd [1]: 98.7 µM
- dH [1]: -0.7 kcal/mol
- stoichiometry N [1]: 0.2
Molecule: (His)6-OsYchF1 (No TGS domain) (from UniProt Q6Z1J6 1-302) (domain or fragment)

- Kd (GST-OsGAP1): 11.9 ± 6.7 µM
- dH (GST-OsGAP1): -2 ± 1.4 kcal/mol
- stoichiometry N (GST-OsGAP1): 0.5 ± 0.7
B1: (His)6-OsYchF1 (G domain) (domain or fragment, rice (Oryza sativa), UniProt Q6Z1J6 1-128, looked up)
chain: MPPKASKKDAAPAERPILGRFSSHLKIGIVGLPNVGKSTFFNIVTKLSIPAENFPFCTIDPNEARVYVPDERFDWLCQLYKPKSEVSAYLEINDIAGLVRGAHAGEGLGNAFLSHIRAVDGIFHVLRA
notes: OsYchF1, rice, G domain, aa 1-128; also called (His)6-G; source: E. coli BL21 (DE3) pLysS, purified; not shown: His6, N-terminal, kept; thioredoxin (Trx), N-terminal, kept; S-tag, N-terminal, kept
